From the DeepSol protein solubility set

Assay: soluble on expression in E. coli; label from the status in PepcDB or PDB records

Sequence | soluble on expression in E. coli
MNETTNEQEVLLLRRKLDLLLRTGKLLMESAADTNRIERNMKRVAAYLGIPEEKLHIDIRWTMLMVNVSDEKHSFSKFQKCEKHGINMEAISKISKLSWRAIEQDYSLDKYEEELEKIARQERNYTPYVVAICTGFACGGFCK | not soluble
MVSTTQSRSLKAMGEEIWKNKTEKINTELFTLTYGSIVAQLCQDYERDFNKVNDHLYSMGYNIGCRLIEDFLARTALPRCENLVKTSEVLSKCAFKIFLNITPNITNWSHNKDTFSLILDENPLADFVELPMDAMKSLWYSNILCGVLKGSLEMVQLDCDVWFVSDILRGDSQTEIKVKLNRILKDEIPIGED | soluble
MKYQLNLTALRCPIPLLSAKKALKNLDKNDELMLILNLESAVENFSIFAEENSVALVEQYYASEKEFIVILKK | not soluble
MSLCAPNTGRFLLTGTPLPMLSYRHSFHAGNHADVLKHTVQSLIIESLKEKDKPFLYLDTHAGAGRYQLGSEHAERTGEYLEGIARIWQQDDLPAELEAYINVVKHFNRSGQLRYYPGSPLIARQLLREQDSLQLTELHPSDYPLLRSEFQKDSRARVEKADGFQQLKAKLPPVSRRGLILIDPPYEMKTDYQAVVSGIAEGYKRFATGTYALWYPVVLRQQIKRMIHDLEATGIRKILQIELAVLPDSDRRGMTASGMIVINPPWKLEQQMNNVLPWLHSKLVPAGTGHATVSWIVPEEGHHHHHH | soluble
MGSDKIHHHHHHLAIINDYWSTQAEAFTEISVDELTSEKNALWKSILKPFVQTDRKLEILDVGCGAGFFEIFLSCLGHHVTAVDFNGKMLAEARKNIEKLGRPELTKLMQMDAQNLAFQDSVFDIVISRNMTWVLENPQRAYGEWLRVLKPHGKLINFDANWFLHLRDDTARRNFEEGQAAVVEHGFELKESDHGGELDNIFRELPLSGCWRPQWDFMTLANMGCEEIAVKFSLPKGLYDEYYEQLYKAIPTFMLCAVKTG | not soluble
MSLWRLKFFLDFEKEEKWLEEMAWKGYQLESTTFGYTFRYTEPEDATIRIDHRVFSRKSEFINYCTLFEDSGWEHIAGNRWSGTYYFKKVNEESEDDIFSDPMSRAGKYKRLSKTEGHHHHHH | not soluble
MGSDKIHHHHHHMPKNWTLKVDQYINANSNCIIATAHVDSFPTDLPLEPNIREPNLKSSTYKQIFDSLTTEPEKFFQRNNGIVLCVNKVKPKNRTELELEILQANEGGNDGVINGGHSVSAFEQARKFKYDLTLARVKVTIHIGLSEDEAKDIALASNTSAPVDARSKVNARGDYQFIKQFLAQLEREEDTKFRIAYYQNQSGAPKSPQCNVNHLIKLMNCLDRNKYNPNTNKSKGKHPPVSNNPSLTDAERERLSRLLPLLPKALWIEQRFFKTIEAYITNPKKKGVDLASIDARKNTLLPDSRYSFGFSAPADIAMPIVAAYRVFLDENYNWLIPFDDFAEDFLQHLWNNYYRKYLVSEKFSGNTVGSKICRNPVIWDSLYVSAQSYLNQQLLKMVSSSKNKREELKLAN | not soluble
MSLKKIVIVGAGFAGVSATRLLAKNLKNDAEITVIDKHDFQTSMTQLHEVAASRVEADAVQYHLNRTIGKFNNVKVVKESLVELDKANKKVITDKNSYDYDYLVVSMGGEPNDFGVPGVNEYGFTLWSLEDALKIKAHLKEMVQAAAKEADSEKRKKLLTFSVAGSGFTGIEMAGELIDWRKKASKKYGIPESEFTINIVEMMPTIMNILDRSLADKALVYLQNKNINVLVNHGITAVAQDHITVNVGGRDEEKVVKEIPGNTLIWTTGVQGNTEAEACQLSETERGHRLQANEYMEAIGEENHGIYVAGDVSGYIVPENGRPTPQIVEAAEQTGSTAAKNIIADIKGGEKEGHHHHHH | soluble
MGSDKIHHHHHHMRKMRKASRLFEIIQILRLARQPVTAAMIAERLEVTIRSIYRDIAALQAMRVPIEGGRGIGYILRPGFDLPPLMFSIEEMEAIVLSLALLERTGDDELKQAAKRVSSKIAGAVPPPLRQTFDANALHAWGFAAPSAGTIDLALVRRAIRDEEKLDLSYRDEAGRTTQRIIRPIALIYYAEAVNTVAWCELRQAIRNFRSDRIEGCQPTGLHFKGEGDRLRQIWVEGWETPAVGG | not soluble
MSLDNKRRFALVGTGNRGTTMWGRDLLAGWRGLVDLVAIADTNALRAERARTMIATNAPVYGNVDAMLAETRPDLVIVCTPDDTHDDIVVRALESGADVITEKPMSTTVEKIRRILDAEKRTGRRVDVSFNYRFAPTAARIKELLNAGEIGRVTSVDFHWYLDTRHGADYFRRWHAYAEHSGSLFVHKATHHFDLLNWYLDSDPEAVSAFADLQMYGRRGPFRGPRCKLCPHKSECDFYLDLEADPFLDSLYEEPSEIDSYFRDGCVFREDIDIPDTMVANIRYRNDVHVSYSLNTFQPIEGHHIAFNGTKGRIELRQYEDQPWETPPEDEILLVRNFPKGKPAMERITVPHFPGGHYGGDDRLRNTLFEPDAKDPLGQRAGARAGAMSVLCGIAALQSSRTGKIVRLADLMPELFTDGAQPMRERLKETCSREGHHHHHH | soluble
MGSDKIHHHHHHMEKILDLLMSFVKEDEGKLDLASFPLRNTTAGAHLLLKTENVVASGIEVSRMFLEKMGLLSKFNVEDGEYLEGTGVIGEIEGNTYKLLVAERTLLNVLSVMFSVATTTRRFAEKLKHAKIAATRKILPGLGVLQKIAVVHGGGDPHRLDLSGCVMIKDNHLKMYGSAERAVQEVRKIIPFTTKIEVEVENLEDALRAVEAGADIVMLDNLSPEEVKDISRRIKDINPNVIVEVSGGITEENVSLYDFETVDVISSSRLTLQEVFVDLSLEIQR | soluble
AHHHHHHASAKWVCKICGYIYDEDAGDPDNGISPGTKFEELPDDWVCPICGAPKSEFEKLEDGSRFIDSNVFLYAMIKPKGNTSKEILKKKEKAKKILLRVENGEDVVTTLIHLSEIANILEAKVNLTTAVRFLENLLLAENVKILPVSVEEYLKAVLISKEKGISVNDALAYLKMKELNIKEIYTFDRHFQNLDVEVIQD | soluble
MGKGKNKMHEPKNGRPQRGANGHSSRQNHRRMEMKYDNSEKMKFPVKLAMWDFDHCDPKRCSGKKLERLGLIKSLRVGQKFQGIVVSPNGKGVVCPDDLEIVEQHGASVVECSWARLEEVPFNKIGGKHERLLPYLVAANQVNYGRPWRLNCVEALAACFAIVGRMDWASELLSHFSWGMGFLELNKELLEIYQQCTDCDSVKRAEEEWLQKLEKETQERKSRAKEEDIWMMGNINRRGNGSQSDTSESEENSEQSDLEGNNQCIEYDSLGNAIRIDNMKSREAQSEESEDEESGSKENGEPLSYDPLGNLIR | not soluble
MGSDKIHHHHHHMSAIAERSKPSEHMPVLPEFTPLERAIINRLQYGLPLTRTPYKDVADELGVSEVTLLKHLQALLDNGTLTRFGPMFHAGEMGGGLTLAAMRIPEQDFANVTEQVNSFPEVAHNYRREHELNMWFVLATETPEGITETIQRIESLTGYTVYNMPKEQEFHVHLHFEV | not soluble
MSLKSFFIGNIEIKVPVIQGGMGVGISLSGLASAVANEGGVGVISCAGLGLLYPKEKGTYTEKCISGLKEEIRKSRMKTKGIIGVNVMVALSNYADMVRTAINEKIDVIFSGAGLPLDLPSYLTTGSITKLVPIVSSSRAAKIICDKWQKNYNYLPDAIVVEGPKAGGHLGFKKEQLQDQNYALDVLIPEVVAIAASYKEQKHIPVIAAGGISTGEDIAHFMELGASGVQMGSIFVTTLECDASETFKEVYIHSKSEDVLIIESPVGMPGRAIDGEFIHSVNNGLEKPRKCSFHCIKTCDYTKSPYCIIKALYNAAKGNMKKGYAFAGSNAFLADKISSVKEVMNTLEREFFLATHKLVEGHHHHHH | not soluble
MGSDKIHHHHHHMTLLRGDDFFTSRAVTVAVEPRTPQTAFPEHYHDFWEIVLVEQGAGVHVFNDQPYALCSGSVFFVRDNDRHLFEDVEGLCLTNMLYRSPRGFRFLSDIAAFLPYGPNGEWQGQWQVNAAGMQQLKQSLNSLAGLAQSDAPEAIAASESLFLQILVQLRQHCFQTEGNGSERQGVQALLGWLQNNYSEEVNWGGLADQFSLPLRTLHRQLKQHTGMTPQRYLNRLRLLEARRRLQQSDDSITTIAHACGFSDSNHFSTQFRKAFSQAPKSLRHQAFSREE | not soluble
